Assay results published in patent US20050048527, “Endonuclease-substrate complexes” (Third Wave Technologies, Inc., published 2005).

T1: Pfu Y33A FEN1 (Pyrococcus furiosus, UniProt O93634 SEQ:1-340, Y33A)
T1 sequence: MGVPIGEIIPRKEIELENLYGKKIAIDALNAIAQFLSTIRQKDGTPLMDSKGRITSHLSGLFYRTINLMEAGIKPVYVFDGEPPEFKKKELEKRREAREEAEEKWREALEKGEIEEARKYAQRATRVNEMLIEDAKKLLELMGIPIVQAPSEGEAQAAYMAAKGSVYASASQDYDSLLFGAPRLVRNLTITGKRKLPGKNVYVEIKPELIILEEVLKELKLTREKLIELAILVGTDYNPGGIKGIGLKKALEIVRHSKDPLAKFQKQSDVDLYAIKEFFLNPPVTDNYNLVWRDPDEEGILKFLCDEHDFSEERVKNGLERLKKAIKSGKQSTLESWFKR

T2: Pho FEN1 (Pyrococcus horikoshii, UniProt O50123 SEQ:1-343)
T2 sequence: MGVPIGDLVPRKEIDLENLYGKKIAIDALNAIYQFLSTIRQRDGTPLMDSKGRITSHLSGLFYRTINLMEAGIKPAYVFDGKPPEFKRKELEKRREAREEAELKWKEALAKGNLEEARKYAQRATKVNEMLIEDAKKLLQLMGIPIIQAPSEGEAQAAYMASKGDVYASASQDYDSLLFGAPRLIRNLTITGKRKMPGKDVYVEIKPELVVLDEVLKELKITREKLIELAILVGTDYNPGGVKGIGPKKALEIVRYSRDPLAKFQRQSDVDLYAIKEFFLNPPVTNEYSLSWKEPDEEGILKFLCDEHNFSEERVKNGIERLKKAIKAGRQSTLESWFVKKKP


Legend:
Pfu Y33A FEN1 = target: T1, Pfu Y33A FEN1; assay: cleavage_in_vitro; rate vs Pfu FEN1; conditions: label: 5'-biotin target; 5'-TET probe; hairpin target-INVADER with overlapping probe flap
Method: (§1) For the evaluation of chimeric enzymes, standard tests were performed to measure the performance and specificity of the enzymes. […] 10 μl reactions are run at 59 C for between 5 to 60 minutes depending on the enzyme. Reactions are stopped by the addition of 10 μl of 95% formamide, 0.02% methyl violet. 1 μl of the mixture is run on a denaturing 20% acrylamide gel and electrophoresed for 15 minutes or until good separation is achieved between cleaved and uncleaved probe. The gels are scanned using an FMBIO fluorescent gel scanner and the bands are quantified with FMBIOAnalysis software. Cleavage rates are determined from the percent probe cleaved. Cleavage rate for the INVADER substrate is defined as the number of probe molecules cleaved per target molecule per minute. In Table 5, below, the cleavage rates for the mutant enzymes are compared to the cleavage rates for unmodified Pfu FEN1 enzyme on the INVADER assay and X-structure substrates.
(§2) The X-structure substrate is used to determine the amount of background cleavage an enzyme will carry out in an INVADER reaction. It mimics the structure created by uncut primary probe and secondary FRET cassette in the INVADER squared reaction. […] 10 μl reactions are run at 59 C for between 3 to 30 minutes depending on the enzyme. Reactions are stopped by the addition of 10 μl of 95% formamide, 0.02% methyl violet. 1 μl of the mixture is run on a denaturing 20% acrylamide gel and electophoresed for 15 minutes or until good separation is achieved between cleaved and uncleaved probe. The gels are scanned using an FMBIO fluorescent gel scanner and the bands are quantified with FMBIOAnalysis software. Cleavage rates are determined from the percent probe cleaved.

Pho FEN1 = target: T2, Pho FEN1; assay: cleavage_in_vitro; rate vs Pfu FEN1; conditions: label: 5'-TET; X-structure
Method: as §1, §2

| Binder | cleavage rate (Pfu Y33A FEN1) | cleavage rate (Pho FEN1) |
| --- | --- | --- |
| INVADER substrate 594-12-1/203-91-1 (structured_DNA) DNA 1: TTTTTCACGGCAGTTGGTGCGCCTCGGAACGAGGCGCACA DNA 2: TTTTCAACTGCCGTGA | 0.05 |  |
| X-structure 203-81-2/203-91-2 (structured_DNA, 3'-NH2 on first strand) DNA 1: TTTTCAACTGCTTAGAGAATCTAAGCAGTTGGTGCGCCTCGTTAA DNA 2: AACGAGGCGCACATT |  | 120 |
